Measured values published in patent publication JP2012050437A (dated 2012).
Substitutions are numbered along the chain they refer to.

B1: murine monoclonal antibody 12A11 (isotype IgG1) (antibody, V domains shown)
VH: QVTLKESGPGILKPSQTLSLTCSFSGFSLSTSGMSVGWIRQPSGKGLEWLAHIWWDDDKYYNPSLKSRLTISKDTSRNQVFLKITSVDTADTATYYCARRTTTADYFAYWGQGTTLTVSS
VL: DVLMTQTPLSLPVSLGDQASISCRSSQSIVHSNGNTYLEWYLQKPGQSPKLLIYKVSNRFSGVPDRFSGSGSGTDFTLKISRVEAEDLGIYYCFQSSHVPLTFGAGTKLELK
notes: Mouse IgG1 from the hybridoma; also called mAb 12A11; m12A11
B2: recombinant mouse 12A11 Cγ2a (isotype-switched 12A11) (antibody, V domains shown)
VH: B1 VH
VL: B1 VL
modifications: biotin conjugated (in the ELISA and the competition assay)
notes: also called m12A11Cγ2a; biotin-conjugated m12A11Cγ2a
B3: humanized 12A11 antibody, version 6.1 (antibody, V domains shown)
VH: QVQLVESGGGVVQPGRSLRLSCAFSGFTLSTSGMSVGWIRQAPGKGLEWVAHIWWDDDKYYNPSLKSRFTISKDTSKNTVYLQMNSLRAEDTAVYYCARRTTTADYFAYWGQGTTVTVSS
VL: DVVMTQSPLSLPVTPGEPASISCRSSQSIVHSNGNTYLEWYLQKPGQSPQLLIYKVSNRFSGVPDRFSGSGSGTDFTLKISRVEAEDVGVYYCFQSSHVPLTFGQGTKLEIK
notes: Variable regions only; also called h12A11v6.1; バージョン6.1
B4: humanized 12A11 antibody, version 2.1 (antibody, V domains shown)
VH: B3 VH with T75N, V80L
VL: B3 VL
notes: Variable regions only; tested in conditioned medium of COS cells; also called h12A11v2.1; v2.1
B5: humanized 12A11 antibody, version 3 (antibody, V domains shown)
VH: B3 VH with K73R, T75N, V80L
VL: B3 VL
notes: Variable regions only; tested in conditioned medium of COS cells; also called h12A11v3; v3
B6: humanized 12A11 antibody, version 5.1 (antibody, V domains shown)
VH: B3 VH with F69L
VL: B3 VL
notes: Variable regions only; also called h12A11v5.1; バージョン5.1
B7: humanized 12A11 antibody, version 5.2 (antibody, V domains shown)
VH: B3 VH with V50L
VL: B3 VL
notes: Variable regions only; also called h12A11v5.2; バージョン5.2
B8: humanized 12A11 antibody, version 5.5 (antibody, V domains shown)
VH: B3 VH with T28S, F69L, V80L
VL: B3 VL
notes: Variable regions only; also called h12A11v5.5; バージョン5.5
B9: humanized 12A11 antibody, version 5.6 (antibody, V domains shown)
VH: B3 VH with T28S, V50L, V80L
VL: B3 VL
notes: Variable regions only; also called h12A11v5.6; バージョン5.6
B10: humanized 12A11 antibody, version 6.2 (antibody, V domains shown)
VH: B3 VH with F69L, V80L
VL: B3 VL
notes: Variable regions only; also called h12A11v6.2; バージョン6.2
B11: humanized 12A11 antibody, version 6.3 (antibody, V domains shown)
VH: B3 VH with V50L, V80L
VL: B3 VL
notes: Variable regions only; also called h12A11v6.3; バージョン6.3
B12: humanized 12A11 antibody, version 6.4 (antibody, V domains shown)
VH: B3 VH with T28S, V80L
VL: B3 VL
notes: Variable regions only; also called h12A11v6.4; バージョン6.4
B13: humanized 12A11 antibody, version 5.3 (antibody, V domains shown)
VH: B3 VH with V50L, F69L, V80L
VL: B3 VL
notes: Variable regions only; also called h12A11v5.3; バージョン5.3
B14: humanized 12A11 antibody, version 5.4 (antibody, V domains shown)
VH: B3 VH with T28S
VL: B3 VL
notes: Variable regions only; also called h12A11v5.4; バージョン5.4

Assays:
[1] = molecular target: T1, aggregated synthetic Aβ1-42 (human, UniProt P05067 672-713); experiment: ELISA on aggregated synthetic Aβ1-42
T1 construct: domain: Aβ1-42; Synthetic peptide, aggregated, coated for ELISA; also called 凝集Aβ1−42; Aβ(1-42) aggregate

[2] = molecular target: T1, aggregated synthetic Aβ1-42; experiment: ELISA on aggregated Aβ1-42, streptavidin-HRP as reporter; confirmed (sentence runs on into paragraph 399)
[3] = molecular target: T1, aggregated synthetic Aβ1-42; experiment: quantitative Aβ(1-42) aggregate binding assay, COS conditioned medium

Binder	binding result [3]	further results
B1		binding result [1]: binds
B2		binding result [2]: binds
B3	binds	
B4	binds	
B5	binds	
B6	binds	
B7	binds	
B8	binds	
B9	binds	
B10	binds	
B11	binds	
B12	binds	
B13	binds	
B14	binds	
